{
  "source": "paper PMC6393246",
  "about": "“Structural identification of conserved RNA binding sites in herpesvirus ORF57 homologs: implications for PAN RNA recognition” (Nucleic Acids Research, 2018)",
  "key": {"hvsORF57Δ146 [1]": {"target": "T1, hvsORF57Δ146 (herpesvirus saimiri (HVS), UniProt P13199 146-417)", "experiment": "X-ray crystallography; same U-bend interaction as PAN17; data not shown; SPR: 20 mM HEPES, 250 mM NaCl, 0.05% Tween-20, pH 7.4, 25 C, protein up to 1 uM; NMR: 20 mM Na phosphate, 50 mM NaCl, 50 mM L-Arg, 50 mM L-Glu, 1 mM EDTA, 2 mM", "settings": "protein: recombinant; tags: thioredoxin/Strep tag cleaved by HRV3C; residue 145 is cloning Gly; chain copies: 2"}, "[2]": {"target": "the molecule itself", "experiment": "SEC-MALS; 0.5 ml at 1 mg/ml on Superdex 200 10/300GL, gel filtration buffer (20 mM HEPES, 150 mM NaCl, 50 mM L-Arg, 50 mM L-Glu, 1 mM TCEP, pH 7.4); homo-dimer"}, "UL69 200-540": {"target": "T2, UL69 200-540 (HCMV, UniProt P16749 200-540)", "T2 sequence": "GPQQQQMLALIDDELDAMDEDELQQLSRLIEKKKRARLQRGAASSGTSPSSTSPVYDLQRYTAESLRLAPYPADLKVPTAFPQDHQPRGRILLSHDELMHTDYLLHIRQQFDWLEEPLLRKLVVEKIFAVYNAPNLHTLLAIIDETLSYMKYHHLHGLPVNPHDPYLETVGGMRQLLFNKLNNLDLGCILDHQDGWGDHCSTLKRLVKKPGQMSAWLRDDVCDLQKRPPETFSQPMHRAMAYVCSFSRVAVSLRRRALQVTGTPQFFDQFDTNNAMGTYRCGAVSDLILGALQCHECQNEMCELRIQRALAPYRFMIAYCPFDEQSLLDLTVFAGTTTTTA", "experiment": "SPR; SPR: 20 mM HEPES, 250 mM NaCl, 0.05% Tween-20, pH 7.4, 25 C, protein up to 1 uM; NMR: 20 mM Na phosphate, 50 mM NaCl, 50 mM L-Arg, 50 mM L-Glu, 1 mM EDTA, 2 mM", "settings": "protein: recombinant; tags: Strep-tag (purification); chain copies: 4; label: 5'-biotin"}, "ICP27Δ241": {"target": "ICP27Δ241 (HSV-1, UniProt P10238 241-512)", "experiment": "SPR; SPR: 20 mM HEPES, 250 mM NaCl, 0.05% Tween-20, pH 7.4, 25 C, protein up to 1 uM; NMR: 20 mM Na phosphate, 50 mM NaCl, 50 mM L-Arg, 50 mM L-Glu, 1 mM EDTA, 2 mM", "settings": "protein: recombinant; tags: Strep-tag (purification); label: 5'-biotin"}, "hvsORF57Δ146 [3]": {"target": "T1, hvsORF57Δ146", "experiment": "SPR; SPR: 20 mM HEPES, 250 mM NaCl, 0.05% Tween-20, pH 7.4, 25 C, protein up to 1 uM; NMR: 20 mM Na phosphate, 50 mM NaCl, 50 mM L-Arg, 50 mM L-Glu, 1 mM EDTA, 2 mM", "settings": "protein: recombinant; tags: thioredoxin/Strep tag cleaved by HRV3C; residue 145 is cloning Gly; chain copies: 2; label: 5'-biotin"}, "ksORF57Δ153": {"target": "T3, ksORF57Δ153 (Kaposi's sarcoma-associated herpesvirus …, UniProt Q2HR75 153-455)", "T3 sequence": "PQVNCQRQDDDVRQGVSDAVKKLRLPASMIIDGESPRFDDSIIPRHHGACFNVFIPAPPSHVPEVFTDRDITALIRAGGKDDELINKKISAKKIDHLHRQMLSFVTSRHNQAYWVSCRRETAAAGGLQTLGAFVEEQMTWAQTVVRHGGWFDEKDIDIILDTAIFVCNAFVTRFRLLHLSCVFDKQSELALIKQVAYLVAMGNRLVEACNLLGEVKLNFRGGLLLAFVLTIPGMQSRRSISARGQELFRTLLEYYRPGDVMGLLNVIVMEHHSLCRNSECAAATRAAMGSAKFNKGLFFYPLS", "experiment": "SPR; SPR: 20 mM HEPES, 250 mM NaCl, 0.05% Tween-20, pH 7.4, 25 C, protein up to 1 uM; NMR: 20 mM Na phosphate, 50 mM NaCl, 50 mM L-Arg, 50 mM L-Glu, 1 mM EDTA, 2 mM", "settings": "protein: recombinant; tags: thioredoxin/Strep tag cleaved by HRV3C; chain copies: 2; label: 5'-biotin"}, "ksORF57 68-178": {"target": "T4, ksORF57 68-178 (Kaposi's sarcoma-associated herpesvirus …, UniProt Q2HR75 68-178)", "T4 sequence": "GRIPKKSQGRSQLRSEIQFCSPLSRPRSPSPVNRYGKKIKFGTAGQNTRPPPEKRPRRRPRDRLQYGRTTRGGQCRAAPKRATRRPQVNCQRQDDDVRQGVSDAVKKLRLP", "experiment": "NMR HSQC; equimolar, 50 uM protein; substantial broadening; SPR: 20 mM HEPES, 250 mM NaCl, 0.05% Tween-20, pH 7.4, 25 C, protein up to 1 uM; NMR: 20 mM Na phosphate, 50 mM NaCl, 50 mM L-Arg, 50 mM L-Glu, 1 mM EDTA, 2 mM", "settings": "protein: recombinant; tags: His-tag (purification), 15N labelled"}, "hvsORF57Δ146 [4]": {"target": "T1, hvsORF57Δ146", "experiment": "X-ray crystallography; Zn2+ in protein; Mg2+/Ca2+ in crystallization; SPR: 20 mM HEPES, 250 mM NaCl, 0.05% Tween-20, pH 7.4, 25 C, protein up to 1 uM; NMR: 20 mM Na phosphate, 50 mM NaCl, 50 mM L-Arg, 50 mM L-Glu, 1 mM EDTA, 2 mM", "settings": "protein: recombinant; tags: thioredoxin/Strep tag cleaved by HRV3C; residue 145 is cloning Gly; chain copies: 2"}},
  "data": [
    {"binder": "GAUUUUGU (ssRNA)", "note": "[PAN 42-49]", "values": [
      {"measurement": "binding result", "setting": "hvsORF57Δ146 [1]", "result": "binds"}
    ]},
    {"binder": "KSHV ORF57 residues 153–455 (ksORF57Δ153) (domain or fragment, ORF57/Mta (ICP27 homolog) of Kaposi's sarcoma-associated herpesvirus (KSHV), residues 153-455, the C-terminal ICP27-homology domain; also called C-terminal IHD of ksORF57; source: E. coli T7 express LysY, purified (StrepTrap HP, HRV3C cleavage, Superdex 75); not shown: thioredoxin, N-terminal, cleaved) PQVNCQRQDDDVRQGVSDAVKKLRLPASMIIDGESPRFDDSIIPRHHGACFNVFIPAPPSHVPEVFTDRDITALIRAGGKDDELINKKISAKKIDHLHRQMLSFVTSRHNQAYWVSCRRETAAAGGLQTLGAFVEEQMTWAQTVVRHGGWFDEKDIDIILDTAIFVCNAFVTRFRLLHLSCVFDKQSELALIKQVAYLVAMGNRLVEACNLLGEVKLNFRGGLLLAFVLTIPGMQSRRSISARGQELFRTLLEYYRPGDVMGLLNVIVMEHHSLCRNSECAAATRAAMGSAKFNKGLFFYPLS", "values": [
      {"measurement": "stoichiometry N", "setting": "[2]", "result": 2}
    ]},
    {"binder": "HVS ORF57 residues 146–417 (hvsORF57Δ146) (domain or fragment, ORF57 (ICP27 homolog) of herpesvirus saimiri (HVS), residues 146-417, the C-terminal ICP27-homology domain; Selenomethionine-derivatised protein was used for crystals of the free form; native protein for the RNA complex and SEC-MALS; also called C-terminal IHD of hvsORF57; C-terminal ICP27-homology domain of HVS ORF57; source: E. coli T7 express LysY, purified (StrepTrap HP, HRV3C cleavage, …)) PLLKLFDISILPKSGEPKLFLPVPSLPCQEAEKTNDKYVLAMAQRAMHDVPISSKQLTANLLPVKFKPLLSIVRYTPNYYYWVSMRKETIASANLCTVAAFLDESLCWGQQYLKNDFIFSENGKDIILDTSSALLSQLVHKIKMLPFCHCLMQTTPQDHIVKQVCYLIASNNRILDAVRYLQTSVIKSPIVLLLAYAVCLPAAIICTKNETQLYSHCMRILKEYRPGDVMNILHESLTQHLNKCPSSTCAYTTRAIVGTKANTTGLFFLPTQ", "values": [
      {"measurement": "stoichiometry N", "setting": "[2]", "result": 2}
    ]},
    {"binder": "CAGUCGCGAAGAGG (ssRNA)", "note": "[14merS (5'-biotin)]", "values": [
      {"measurement": "binding result", "setting": "UL69 200-540", "result": "binds"},
      {"measurement": "binding result", "setting": "ICP27Δ241", "result": "no binding"}
    ]},
    {"binder": "CACCUAUGGAUUUUGUG (ssRNA)", "note": "[PAN17 (5'-biotin)]", "values": [
      {"measurement": "binding result", "setting": "UL69 200-540", "result": "binds"},
      {"measurement": "binding result", "setting": "hvsORF57Δ146 [3]", "result": "binds"},
      {"measurement": "binding result", "setting": "ICP27Δ241", "result": "no binding"},
      {"measurement": "binding result", "setting": "ksORF57Δ153", "result": "binds"}
    ]},
    {"binder": "CAGUCGCGAAGAGG (ssRNA)", "note": "[14merS]", "values": [
      {"measurement": "binding result", "setting": "ksORF57 68-178", "result": "binds"}
    ]},
    {"binder": "CACCUAUGGAUUUUGUG (ssRNA)", "note": "[PAN17 (crystal)]", "values": [
      {"measurement": "binding result", "setting": "hvsORF57Δ146 [4]", "result": "binds"}
    ]},
    {"binder": "CCGUCCCCGCCGCU (ssRNA)", "note": "[14mer1 (5'-biotin)]", "values": [
      {"measurement": "binding result", "setting": "UL69 200-540", "result": "binds"},
      {"measurement": "binding result", "setting": "hvsORF57Δ146 [3]", "result": "no binding"},
      {"measurement": "binding result", "setting": "ICP27Δ241", "result": "no binding"},
      {"measurement": "binding result", "setting": "ksORF57Δ153", "result": "no binding"}
    ]}
  ]
}
